From patent publication US20240199762A1 (PHILOGEN S P A, published 2024)

Legend:
[1] = molecular target: T1, human FAP-ECD (extracellular domain) recombinant fragment containing a C-terminal His6 tag (human, UniProt Q12884 26-760, randomly biotinylated with NHS ester-activated biotin (as used on the SA chip and Streptawell plates)); assay: SPR, BIAcore X100, biotinylated human FAP-ECD on SA chip (1500 RU), monomeric scFv injected
T1 construct: also called biotinylated human FAP-ECD; biotinylated human FAP
T1 sequence: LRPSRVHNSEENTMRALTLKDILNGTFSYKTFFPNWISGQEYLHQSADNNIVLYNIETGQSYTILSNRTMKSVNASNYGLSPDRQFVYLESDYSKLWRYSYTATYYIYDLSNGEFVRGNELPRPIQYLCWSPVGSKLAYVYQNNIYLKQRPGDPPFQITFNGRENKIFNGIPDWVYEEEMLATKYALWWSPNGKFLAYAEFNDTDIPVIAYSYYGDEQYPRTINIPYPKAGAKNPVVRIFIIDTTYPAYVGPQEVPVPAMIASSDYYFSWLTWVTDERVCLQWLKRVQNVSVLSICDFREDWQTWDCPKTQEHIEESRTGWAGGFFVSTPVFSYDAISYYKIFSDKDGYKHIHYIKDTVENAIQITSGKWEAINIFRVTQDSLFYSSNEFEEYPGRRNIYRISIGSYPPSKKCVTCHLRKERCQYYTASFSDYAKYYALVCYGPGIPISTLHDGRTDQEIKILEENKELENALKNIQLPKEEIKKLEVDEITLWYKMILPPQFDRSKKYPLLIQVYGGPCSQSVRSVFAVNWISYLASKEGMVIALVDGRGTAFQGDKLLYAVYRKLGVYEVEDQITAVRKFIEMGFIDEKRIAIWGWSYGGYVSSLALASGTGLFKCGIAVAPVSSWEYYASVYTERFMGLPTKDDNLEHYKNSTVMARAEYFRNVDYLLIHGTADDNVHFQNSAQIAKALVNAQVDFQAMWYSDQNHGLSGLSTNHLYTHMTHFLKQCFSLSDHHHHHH
Protocol: Affinity measurements of the C5 and 7NP2 scFv antibodies were performed by Surface Plasmon Resonance using BIAcore X100 instrument with a biotinylated human FAP-ECD coated SA chip. A final coating of 1500 RU was achieved.
Samples were injected at a concentration of […], 450 nM and 225 nM for the C5 scFv and of 1350 nM, 675 nM, 338 nM and 170 nM for the 7NP2 scFv. No regeneration of the SA chip was performed between each run, scFvs were left to detach from the antigen. KD measurements were assessed using the BIAevaluation 3.2 software.

[2] = molecular target: T2, human FAP expressed on transduced cells (SKRC52-hFAP, HT-1080-hFAP) (human, UniProt Q12884 1-760); assay: flow cytometry on HT-1080-hFAP and SKRC52-hFAP cells against wild-type cells
T2 construct: whole, on cells; Also the target in SKRC52-hFAP tumor cryosections and in tumors of tumor-bearing mice; also called cell-expressed human FAP
T2 sequence (looked up): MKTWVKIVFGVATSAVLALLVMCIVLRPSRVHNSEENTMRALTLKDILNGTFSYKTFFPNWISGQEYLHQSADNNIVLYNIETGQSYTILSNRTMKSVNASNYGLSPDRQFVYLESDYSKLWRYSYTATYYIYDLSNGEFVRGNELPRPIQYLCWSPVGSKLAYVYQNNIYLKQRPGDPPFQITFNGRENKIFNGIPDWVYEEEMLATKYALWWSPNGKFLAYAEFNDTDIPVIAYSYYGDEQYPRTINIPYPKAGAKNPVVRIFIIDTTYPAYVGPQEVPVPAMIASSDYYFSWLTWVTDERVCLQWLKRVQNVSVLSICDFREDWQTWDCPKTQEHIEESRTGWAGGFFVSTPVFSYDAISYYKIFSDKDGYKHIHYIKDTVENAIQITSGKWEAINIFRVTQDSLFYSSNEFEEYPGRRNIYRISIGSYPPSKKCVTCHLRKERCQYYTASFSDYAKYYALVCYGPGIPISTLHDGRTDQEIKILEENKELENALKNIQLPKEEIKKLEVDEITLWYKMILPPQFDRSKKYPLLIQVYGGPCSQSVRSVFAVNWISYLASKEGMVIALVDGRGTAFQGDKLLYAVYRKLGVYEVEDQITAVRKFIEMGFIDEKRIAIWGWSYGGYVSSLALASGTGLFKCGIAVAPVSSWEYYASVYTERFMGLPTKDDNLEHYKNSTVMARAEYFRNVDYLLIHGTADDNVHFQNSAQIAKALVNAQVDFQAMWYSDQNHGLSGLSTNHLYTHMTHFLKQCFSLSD
Protocol: The cell lines used were the human renal cell carcinoma cell line SKRC52 and the human fibrosarcoma cell line HT-1080.
Specifically, SKRC52-hFAP, SKRC52 wild-type (wt), HT-1080-hFAP and HT-1080 wt cells were detached from cell culture plates using Accutase, counted and suspended to a final concentration of 1×10⁶ cells/mL in FACS buffer (0.5% BSA, 2 mM EDTA in PBS). Cells were incubated with the 7NP2 or KSF antibodies in SIP format and binding detected using an […] (25 μg/ml), followed by staining with the anti-rat AlexaFluor488 antibody. Cells were analyzed on a CytoFLEX cytometer (Beckman Coulter). The raw data were processed using the FlowJo 10.4 software.

B1: affinity-matured anti-FAP antibody 7NP2 in scFv format (scFv)
scFv: EVQLLESGGGLVQPGGSLRLSCAASGFTFSSYAMSWVRQAPGKGLEWVSAIGSVGGPTYYADSVKGRFTISRDNSKNTLYLQMNSLRAEDTAVYYCAKRLAWFDYWGQGTLVTVSSGGGGSGGGGSGGGGEIVLTQSPGTLSLSPGERATLSCRASQSVSSSYLAWYQQKPGQAPRLLIYGASSRATGIPDRFSGSGSGTDFTLTISRLEPEDFAVYYCQQSGKGPLTFGQGTKVEIK
notes: The monomeric scFv was used in BIAcore; also called 7NP2 scFv; scFv(7NP2)
Work on B1 yielded a Kd [1] of 10 nM.

B2: anti-FAP antibody 7NP2 in SIP (small immunoprotein) format (other)
chain: EVQLLESGGGLVQPGGSLRLSCAASGFTFSSYAMSWVRQAPGKGLEWVSAIGSVGGPTYYADSVKGRFTISRDNSKNTLYLQMNSLRAEDTAVYYCAKRLAWFDYWGQGTLVTVSSGGGGSGGGGSGGGGEIVLTQSPGTLSLSPGERATLSCRASQSVSSSYLAWYQQKPGQAPRLLIYGASSRATGIPDRFSGSGSGTDFTLTISRLEPEDFAVYYCQQSGKGPLTFGQGTKVEIKSGGSGGPRAAPEVYAFATPEWPGSRDKRTLACLIQNFMPEDISVQWLHNEVQLPDARHSTTQPRKTKGSGFFVFSRLEVTRAEWEQKDEFICRAVHEAASPSQTVQRAVSVNPESSRRGGC
notes: Homodimeric mini-immunoglobulin: 77 kDa under non-reducing and 38 kDa under reducing conditions; also called 7NP2 SIP; 7NP2(SIP)
B2: binds [2].
